Results on 60 variants are retold here after PMC5740061 (Nature Communications, 2017).

The chains are these.
B1: SDGF-TB1G1 (TB1G1 displayed on 293F cells) [designed binder] / Biotinylated His-Avi-TEAD1(194–411) [modified: biotin (BirA-500 kit); biotin (BirA-500 kit)] [not stated] (parent complex)
chain 1: PDEYIERAKECCKKGDIQCCLRYFEESGDPNVMLICLFCP
chain 2: RSIGTTKLRLVEFSAFLEQQRDPDSYNKHLFVHIGHANHSYSDPLLESVDIRQIYDKFPEKKGGLKELFGKGPQNAFFLVKFWADLNCNIQDDAGAFYGVTSQYESSENMTVTCSTKVCSFGKQVVEKVETEYARFENGRFVYRINRSPMCEYMINFIHKLKHLPEKYMMNSVLENFTILLVVTNRDTQETLLCMACVFEVSNSEHGAQHHIYRLVKD

The variants in this assay derive from B1. The assay can be described thus: mammalian (293F) surface display of a site-saturation mutagenesis library (every non-Cys single substitution), FACS sorting on biotinylated TEAD1 YBD, two sorting rounds, Illumina sequencing with perfect-match mapping; 20 nM biotinylated TEAD, monovalent 2-step stain (TEAD alone 30 min at 4 °C, dilute, pellet, then 20 nM streptavidin-Alexa Fluor 647), flow sorting on a BD Aria.
As for chain 1 D2R, the enrichment is -7.12 log2 (fold change of variant abundance after two TEAD sorts vs input, normalised to TB1G1).
Then chain 1 D2H, with -1.05 log2 (fold change of variant abundance after two TEAD sorts vs input, normalised to TB1G1); and chain 1 D2F, with -3.41 log2 (fold change of variant abundance after two TEAD sorts vs input, normalised to TB1G1).
Next, chain 1 D2T: -0.52 log2 (fold change of variant abundance after two TEAD sorts vs input, normalised to TB1G1).
Regarding chain 1 D2Y, the enrichment was -1.63 log2 (fold change of variant abundance after two TEAD sorts vs input, normalised to TB1G1).
Regarding chain 1 P1L, the enrichment was -2.9 log2 (fold change of variant abundance after two TEAD sorts vs input, normalised to TB1G1).
Turning to chain 1 P1K, the enrichment is -0.294 log2 (fold change of variant abundance after two TEAD sorts vs input, normalised to TB1G1).
As to chain 1 P1V, the enrichment was -0.595 log2 (fold change of variant abundance after two TEAD sorts vs input, normalised to TB1G1).
With chain 1 P1Q, the enrichment was -0.836 log2 (fold change of variant abundance after two TEAD sorts vs input, normalised to TB1G1).
Then chain 1 P1H, with -0.884 log2 (fold change of variant abundance after two TEAD sorts vs input, normalised to TB1G1).
Next, chain 1 P1I: -2.27 log2 (fold change of variant abundance after two TEAD sorts vs input, normalised to TB1G1); chain 1 I5K: -1.5 log2 (fold change of variant abundance after two TEAD sorts vs input, normalised to TB1G1); chain 1 I5A: -1.2 log2 (fold change of variant abundance after two TEAD sorts vs input, normalised to TB1G1).
chain 1 I5G: the enrichment is -3.97 log2 (fold change of variant abundance after two TEAD sorts vs input, normalised to TB1G1).
Next, chain 1 I5S: -2.04 log2 (fold change of variant abundance after two TEAD sorts vs input, normalised to TB1G1).
Next, chain 1 I5W: -7.46 log2 (fold change of variant abundance after two TEAD sorts vs input, normalised to TB1G1); chain 1 I5V: -0.274 log2 (fold change of variant abundance after two TEAD sorts vs input, normalised to TB1G1).
With chain 1 I5R, the enrichment is -3.27 log2 (fold change of variant abundance after two TEAD sorts vs input, normalised to TB1G1).
In the case of chain 1 I5L, the enrichment was -0.381 log2 (fold change of variant abundance after two TEAD sorts vs input, normalised to TB1G1).
chain 1 E3N: the enrichment was 0.579 log2 (fold change of variant abundance after two TEAD sorts vs input, normalised to TB1G1).
Then chain 1 E3K, with -0.5 log2 (fold change of variant abundance after two TEAD sorts vs input, normalised to TB1G1); and chain 1 E3W, with -1.4 log2 (fold change of variant abundance after two TEAD sorts vs input, normalised to TB1G1).
Next, chain 1 E3A: -2.02 log2 (fold change of variant abundance after two TEAD sorts vs input, normalised to TB1G1); chain 1 R7G: 1.31 log2 (fold change of variant abundance after two TEAD sorts vs input, normalised to TB1G1); chain 1 R7F: -1.04 log2 (fold change of variant abundance after two TEAD sorts vs input, normalised to TB1G1).
For chain 1 R7S, the enrichment is 0.311 log2 (fold change of variant abundance after two TEAD sorts vs input, normalised to TB1G1).
Consider chain 1 R7N, for which the enrichment is 0.343 log2 (fold change of variant abundance after two TEAD sorts vs input, normalised to TB1G1).
Next, chain 1 R7L: -0.388 log2 (fold change of variant abundance after two TEAD sorts vs input, normalised to TB1G1).
Then chain 1 R7E, with -0.163 log2 (fold change of variant abundance after two TEAD sorts vs input, normalised to TB1G1); and chain 1 Y4T, with -0.869 log2 (fold change of variant abundance after two TEAD sorts vs input, normalised to TB1G1).
For chain 1 Y4F, the enrichment is 0.668 log2 (fold change of variant abundance after two TEAD sorts vs input, normalised to TB1G1).
In the case of chain 1 Y4D, the enrichment was -1.79 log2 (fold change of variant abundance after two TEAD sorts vs input, normalised to TB1G1).
Next, chain 1 Y4L: -1.81 log2 (fold change of variant abundance after two TEAD sorts vs input, normalised to TB1G1); chain 1 Y4Q: 0.291 log2 (fold change of variant abundance after two TEAD sorts vs input, normalised to TB1G1).
As for chain 1 Y4N, the enrichment was 0.0419 log2 (fold change of variant abundance after two TEAD sorts vs input, normalised to TB1G1).
Regarding chain 1 Y4M, the enrichment is -0.684 log2 (fold change of variant abundance after two TEAD sorts vs input, normalised to TB1G1).
Then chain 1 Y4S, with -0.738 log2 (fold change of variant abundance after two TEAD sorts vs input, normalised to TB1G1); and chain 1 Y4A, with 0.259 log2 (fold change of variant abundance after two TEAD sorts vs input, normalised to TB1G1); and chain 1 A8W, with -5.46 log2 (fold change of variant abundance after two TEAD sorts vs input, normalised to TB1G1).
Then chain 1 A8S, with -2.79 log2 (fold change of variant abundance after two TEAD sorts vs input, normalised to TB1G1); and chain 1 A8Y, with -3.35 log2 (fold change of variant abundance after two TEAD sorts vs input, normalised to TB1G1); and chain 1 A8R, with -5.84 log2 (fold change of variant abundance after two TEAD sorts vs input, normalised to TB1G1).
Regarding chain 1 A8F, the enrichment is -4.33 log2 (fold change of variant abundance after two TEAD sorts vs input, normalised to TB1G1).
Take chain 1 A8K: the enrichment was -4.73 log2 (fold change of variant abundance after two TEAD sorts vs input, normalised to TB1G1).
On to chain 1 K9H, for which the enrichment was -1.5 log2 (fold change of variant abundance after two TEAD sorts vs input, normalised to TB1G1).
As to chain 1 K9E, the enrichment was 3.95 log2 (fold change of variant abundance after two TEAD sorts vs input, normalised to TB1G1).
For the variant chain 1 K9I, the enrichment is -3.03 log2 (fold change of variant abundance after two TEAD sorts vs input, normalised to TB1G1).
For chain 1 K9T, the enrichment was 2.68 log2 (fold change of variant abundance after two TEAD sorts vs input, normalised to TB1G1).
Then chain 1 K9D, with -0.576 log2 (fold change of variant abundance after two TEAD sorts vs input, normalised to TB1G1); and chain 1 K9S, with -0.907 log2 (fold change of variant abundance after two TEAD sorts vs input, normalised to TB1G1).
On to chain 1 E6A, for which the enrichment was -0.676 log2 (fold change of variant abundance after two TEAD sorts vs input, normalised to TB1G1).
For the variant chain 1 E6L, the enrichment is -0.404 log2 (fold change of variant abundance after two TEAD sorts vs input, normalised to TB1G1).
As to chain 1 E6M, the enrichment is -2.04 log2 (fold change of variant abundance after two TEAD sorts vs input, normalised to TB1G1).
Regarding chain 1 E6Y, the enrichment is -2.33 log2 (fold change of variant abundance after two TEAD sorts vs input, normalised to TB1G1).
As for chain 1 E6R, the enrichment was -1.78 log2 (fold change of variant abundance after two TEAD sorts vs input, normalised to TB1G1).
Take chain 1 E6I: the enrichment was -1.56 log2 (fold change of variant abundance after two TEAD sorts vs input, normalised to TB1G1).
For the variant chain 1 E6N, the enrichment is -0.816 log2 (fold change of variant abundance after two TEAD sorts vs input, normalised to TB1G1).
With chain 1 E6V, the enrichment is -1.55 log2 (fold change of variant abundance after two TEAD sorts vs input, normalised to TB1G1).
chain 1 E6K: the enrichment is -1.13 log2 (fold change of variant abundance after two TEAD sorts vs input, normalised to TB1G1).
chain 1 E6D: the enrichment was -0.602 log2 (fold change of variant abundance after two TEAD sorts vs input, normalised to TB1G1).
